This note sets out measurements from article PMC5815136.

One data set deals with T1, Ct_Rio2 (Chaetomium thermophilum? (given only as …, UniProt L0BC08 1-396)).
T1 sequence: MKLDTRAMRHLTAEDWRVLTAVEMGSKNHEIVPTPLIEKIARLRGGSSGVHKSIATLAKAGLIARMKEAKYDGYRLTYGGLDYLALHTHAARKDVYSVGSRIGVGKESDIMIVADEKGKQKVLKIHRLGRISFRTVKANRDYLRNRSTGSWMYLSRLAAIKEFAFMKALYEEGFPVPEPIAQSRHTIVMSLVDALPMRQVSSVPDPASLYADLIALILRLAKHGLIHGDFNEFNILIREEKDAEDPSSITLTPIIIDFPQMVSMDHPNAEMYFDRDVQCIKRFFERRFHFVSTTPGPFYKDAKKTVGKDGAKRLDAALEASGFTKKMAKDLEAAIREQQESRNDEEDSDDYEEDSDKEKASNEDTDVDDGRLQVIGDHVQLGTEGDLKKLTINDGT
Kind of data set: EMSA. A general note: A gel shift assay detects complexes by their altered migration in electrophoresis.

The next data set has as its target T2, Ct_Rio2 K106A (Chaetomium thermophilum? (given only as …, UniProt L0BC08 1-396, K106A)).
T2 sequence: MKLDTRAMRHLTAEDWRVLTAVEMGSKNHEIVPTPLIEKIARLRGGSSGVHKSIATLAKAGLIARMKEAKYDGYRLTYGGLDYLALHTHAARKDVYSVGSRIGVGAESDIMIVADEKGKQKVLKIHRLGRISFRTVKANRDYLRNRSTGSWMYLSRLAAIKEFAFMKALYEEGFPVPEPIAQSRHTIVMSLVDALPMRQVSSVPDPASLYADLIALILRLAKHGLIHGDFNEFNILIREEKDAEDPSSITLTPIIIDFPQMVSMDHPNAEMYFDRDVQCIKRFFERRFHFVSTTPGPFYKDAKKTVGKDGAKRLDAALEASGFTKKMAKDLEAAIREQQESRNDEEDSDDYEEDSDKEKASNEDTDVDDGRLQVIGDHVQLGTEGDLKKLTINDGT
Kind of data set: EMSA.

As to GGGUUAAUUUGACUCAACACGGGGAAA (structured_RNA) [h31], the binding result with Ct_Rio2 is listed as “binds”.

On to GGGUUAAUUUGACUCAACACAAAGAAA (structured_RNA) [h31* (h31-Stab)], for which the binding result with Ct_Rio2 and with Ct_Rio2 K106A was “binds” in each case.
